Results on two molecules are retold here after US11090322B2, “Anthracycline disulfide intermediates, antibody-drug conjugates and methods” (priority 2014, dated 2021).

The test system of one series is tumor models. Particulars: cited from earlier work.
The conditions of series [1]: cited from earlier work.
In another series the test system is SK-BR-3 cells. Description: In vitro cell proliferation assay (CellTiter-Glo), SK-BR-3 cell viability at 5 days. It counts as cell-based. Particulars: SK-BR-3, 5 days, concentrations in μg/ml; FIG. 1 and FIG. 2. As for the experimental part: Generally, the cytotoxic or cytostatic activity of an antibody-drug conjugate (ADC) is measured by: exposing mammalian cells having receptor proteins, e.g. HER2, to the antibody of the ADC in a cell culture medium; culturing the cells for a period from about 6 hours to about 5 days; and measuring cell viability. Cell-based in vitro assays were used to measure viability (proliferation), cytotoxicity, and induction of apoptosis (caspase activation) of the ADC of the invention.
The CellTiter-Glo® Luminescent Cell Viability Assay is a commercially available (Promega Corp., Madison, Wis.), homogeneous assay method based on the recombinant expression of Coleoptera luciferase (U.S. Pat. Nos. 5,583,024; 5,674,713; 5,700,670). This cell proliferation assay determines the number of viable cells in culture based on quantitation of the ATP present, an indicator of metabolically active cells (Crouch et al (1993) J. Immunol. Meth. 160:81-88; U.S. Pat. No. 6,602,677). […]
The homogeneous “add-mix-measure” format results in cell lysis and generation of a luminescent signal proportional to the amount of ATP present. […] Viable cells are reflected in relative luminescence units (RLU). […]
Efficacy of ADC was measured by a cell proliferation assay employing the following protocol ([…] GLO™ Luminescent Cell Viability Assay, Promega Corp. Technical Bulletin TB288; Mendoza et al (2002) Cancer Res. 62:5485-5488): • 1. […]
(Cellular ATP, detected with luciferase, serves as a proxy for viable cell number.)

Series [2] has as its system MMTV-HER2 Fo5 transgenic mammary tumors. Description: In vivo tumor growth inhibition, MMTV-HER2 Fo5 transgenic mammary tumor allograft. On the set-up: species or system CRL nu/nu mice. Particulars: FIG. 5. As for the experimental part: For example, the in vivo efficacy of an anti-HER2 ADC of the invention can be measured by a high expressing HER2 transgenic explant mouse model (Phillips et al (2008) Cancer Res. 68:9280-90). […] Subjects were treated once with ADC at certain dose levels (mg/kg) and placebo buffer control (Vehicle) and monitored over two weeks or more to measure the time to tumor doubling, log cell kill, and tumor shrinkage.
(§1) Tumors were established and allowed to grow to 150-200 mm^3 in volume (as measured using calipers) before a single treatment on day 0. Tumor volume was measured using calipers according to the formula: V (mm^3)=0.5A×B^2, where A and B are the long and short diameters, respectively. […] Data collected from each experimental group (10 mice per group) were expressed as mean±SE.
The Fo5 mouse mammary tumor model was employed to evaluate the in vivo efficacy of antibody-drug conjugates of the invention after single dose intravenous injections, and as described previously (Phillips G D L, Li G M, Dugger D L, et al. Targeting HER2-Positive Breast Cancer with Trastuzumab-DM1, an Antibody-Cytotoxic Drug Conjugate. (2008) Cancer Res. 68:9280-90), incorporated by reference herein. […]

A further series relates to KPL4 tumor model. In words: In vivo tumor growth inhibition, KPL4 tumor model. Particulars: single IV treatment Day 0 at 3 mg/kg; non specific anti-CD33 controls; FIG. 4. Set-up: species or system scid beige mice. As for the experimental part: When tumors reached a mean tumor volume of 100-250 mm3, they were grouped into 9 groups of 8-10 mice each. A single treatment was administered intravenously via the tail vein on Day 0 as follows: (01) Vehicle: Histidine Buffer #8: 20 mM Histidine Acetate, pH 5.5, 240 mM Sucrose, 0.02% PS 20, (02) Thio Hu anti-Her2 7C2 LC K149C-(ethylmaleimide) 0.3 mg/kg 138, (03) Thio Hu anti-Her2 7C2 LC K149C-(ethylmaleimide) 1 mg/kg 138, (04) Thio Hu anti-Her2 7C2 LC K149C-(ethylmaleimide) 3 mg/kg 138, (05) Thio Hu anti-Her2 7C2 LC K149C-(LD-57) 0.3 mg/kg 109, (06) Thio Hu anti-Her2 7C2 LC K149C-(LD-57) 1 mg/kg 109, (07) Thio Hu anti-Her2 7C2 LC K149C-(LD-57) 3 mg/kg 109, (08) Thio Hu Anti-CD33 15G15.3 LC K149C-(ethylmaleimide) 3 mg/kg 139, and (09) Thio Hu anti-CD33 15G15.3 LC K149C-(LD-57) 3 mg/kg 110.
as §1

`COc1cccc2c1C(=O)c1c(O)c3c(c(O)c1C2=O)C[C@@](O)(C(=O)CO)C[C@@H]3O[C@H]1C[C@H]2[C@H](O[C@@H]3[C@@H](OC)OCCN32)[C@H](C)O1` [PNU-159682, 3′-deamino-3″,4′-anhydro-[2″(S)-methoxy-3″(R)-oxy-4″-morpholinyl]doxorubicin]: in the series on tumor models, the “efficacy in vivo tumor models” value is listed as “effective”. Further, the “cytotoxicity in vitro relative to nemorubicin and doxorubicin” value in series [1] was “remarkably more cytotoxic than nemorubicin and doxorubicin”.

B1: ADC-110 (conjugate)
VH: QVQLVQSGAEVKKPGSSVKVSCKASGGIFSNHAISWVRQAPGQGLEWMGGIIPIFGTANYAQKFQGRVTITADESTSTAFMELSSLRSEDTAVYYCAREWADVFDIWGQGTMVTVSS
VL: EIVLTQSPLSLPVTPGEPASISCRSSQSLLHSNGYNYLDWYLQKPGQSPQLLIYLGVNSVSGVPDRFSGSGSGTDFTLKISRVEAEDVGVYYCMQALQTPWTFGQGTKVEIK
For B1, in the series with SK-BR-3 cells, the “cell-killing activity (in vitro cell viability versus concentration)” value is given as “less activity”. In addition, the tumor growth inhibition entry in series [2] (dosing once IV at 1 mg/kg) is “little tumor growth inhibition”; in series [2] (dosing once IV at 3 mg/kg) it was “modest tumor growth inhibition”; with KPL4 tumor model, “little or no tumor growth inhibition”.
